Test results taken from IntAct's records for PubMed 27519415.

B1: Glutaredoxin-3 (Homo sapiens), O76003 (parent)
chain: MAAGAAEAAVAAVEEVGSAGQFEELLRLKAKSLLVVHFWAPWAPQCAQMNEVMAELAKELPQVSFVKLEAEGVPEVSEKYEISSVPTFLFFKNSQKIDRLDGAHAPELTKKVQRHASSGSFLPSANEHLKEDLNLRLKKLTHAAPCMLFMKGTPQEPRCGFSKQMVEILHKHNIQFSSFDIFSDEEVRQGLKAYSSWPTYPQLYVSGELIGGLDIIKELEASEELDTICPKAPKLEERLKVLTNKASVMLFMKGNKQEAKCGFSKQILEILNSTGVEYETFDILEDEEVRQGLKAYSNWPTYPQLYVKGELVGGLDIVKELKENGELLPILRGEN
partner: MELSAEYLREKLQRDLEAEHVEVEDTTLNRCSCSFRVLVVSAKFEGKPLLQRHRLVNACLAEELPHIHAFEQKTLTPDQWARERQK
B2: Glutaredoxin-3 (Homo sapiens), O76003 (parent)
chain: B1 chain

Variants of: B1
Conditions: with bola2_human BOLA2, Q9H3K6

effect of a mutation on the interaction | Variant
decreasing interaction strength | MAAGAAEAAVAAVEEVGSAGQFEELLRLKAKSLLVVHFWAPWAPQCAQMNEVMAELAKELPQVSFVKLEAEGVPEVSEKYEISSVPTFLFFKNSQKIDRLDGAHAPELTKKVQRHASSGSFLPSANEHLKEDLNLRLKKLTHAAPCMLFMKGTPQEPRCGFSKQMVEILHKHNIQFSSFDIFSDEEVRQGLKAYSSWPTYPQLYVSGELIGGLDIIKELEASEELDTICPKAPKLEERLKVLTNKASVMLFMKGNKQEAKSGFSKQILEILNSTGVEYETFDILEDEEVRQGLKAYSNDATYPQLYVKGELVGGLDIVKELKENGELLPILRGEN [C261S;W299D;P300A]
disrupting interaction strength | MAAGAAEAAVAAVEEVGSAGQFEELLRLKAKSLLVVHFWAPWAPQCAQMNEVMAELAKELPQVSFVKLEAEGVPEVSEKYEISSVPTFLFFKNSQKIDRLDGAHAPELTKKVQRHASSGSFLPSANEHLKEDLNLRLKKLTHAAPCMLFMKGTPQEPRSGFSKQMVEILHKHNIQFSSFDIFSDEEVRQGLKAYSSDATYPQLYVSGELIGGLDIIKELEASEELDTICPKAPKLEERLKVLTNKASVMLFMKGNKQEAKSGFSKQILEILNSTGVEYETFDILEDEEVRQGLKAYSNDATYPQLYVKGELVGGLDIVKELKENGELLPILRGEN [C159S;W197D;P198A;C261S;W299D;P300A]
decreasing interaction strength | MAAGAAEAAVAAVEEVGSAGQFEELLRLKAKSLLVVHFWAPWAPQCAQMNEVMAELAKELPQVSFVKLEAEGVPEVSEKYEISSVPTFLFFKNSQKIDRLDGAHAPELTKKVQRHASSGSFLPSANEHLKEDLNLRLKKLTHAAPCMLFMKGTPQEPRSGFSKQMVEILHKHNIQFSSFDIFSDEEVRQGLKAYSSDATYPQLYVSGELIGGLDIIKELEASEELDTICPKAPKLEERLKVLTNKASVMLFMKGNKQEAKCGFSKQILEILNSTGVEYETFDILEDEEVRQGLKAYSNWPTYPQLYVKGELVGGLDIVKELKENGELLPILRGEN [C159S;W197D;P198A]

Variants of: B2
Conditions: with cpin1_human CIAPIN1, Q6FI81
Sequence of cpin1_human CIAPIN1, Q6FI81 (Q6FI81 whole entry): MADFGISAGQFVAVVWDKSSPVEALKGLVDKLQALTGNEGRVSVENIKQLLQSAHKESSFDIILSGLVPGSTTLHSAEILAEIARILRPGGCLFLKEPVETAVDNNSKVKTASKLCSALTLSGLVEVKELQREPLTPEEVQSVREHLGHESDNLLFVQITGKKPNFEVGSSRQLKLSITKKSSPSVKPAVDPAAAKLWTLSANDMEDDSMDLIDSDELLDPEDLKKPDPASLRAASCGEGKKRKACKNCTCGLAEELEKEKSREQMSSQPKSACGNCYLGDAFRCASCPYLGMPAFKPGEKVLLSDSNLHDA

effect of a mutation on the interaction | Variant
disrupting interaction strength | MAAGAAEAAVAAVEEVGSAGQFEELLRLKAKSLLVVHFWAPWAPQCAQMNEVMAELAKELPQVSFVKLEAEGVPEVSEKYEISSVPTFLFFKNSQKIDRLDGAHAPELTKKVQRHASSGSFLPSANEHLKEDLNLRLKKLTHAAPCMLFMKGTPQEPRSGFSKQMVEILHKHNIQFSSFDIFSDEEVRQGLKAYSSDATYPQLYVSGELIGGLDIIKELEASEELDTICPKAPKLEERLKVLTNKASVMLFMKGNKQEAKSGFSKQILEILNSTGVEYETFDILEDEEVRQGLKAYSNDATYPQLYVKGELVGGLDIVKELKENGELLPILRGEN [C159S;W197D;P198A;C261S;W299D;P300A]
